Laboratory results taken from IntAct's records for PubMed 24446487.

Molecular target: ospg_shifl ospG (UniProt Q99PZ6)
Sequence (Q99PZ6 whole entry): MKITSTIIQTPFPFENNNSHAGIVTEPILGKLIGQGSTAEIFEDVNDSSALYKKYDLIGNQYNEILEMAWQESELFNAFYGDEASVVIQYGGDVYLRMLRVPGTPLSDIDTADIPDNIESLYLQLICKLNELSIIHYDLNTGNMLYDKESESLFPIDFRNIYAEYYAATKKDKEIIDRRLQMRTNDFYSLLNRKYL

Sequence of Ubiquitin-conjugating enzyme E2 D3 (Homo sapiens), P61077 F62A (P61077 whole entry F62A): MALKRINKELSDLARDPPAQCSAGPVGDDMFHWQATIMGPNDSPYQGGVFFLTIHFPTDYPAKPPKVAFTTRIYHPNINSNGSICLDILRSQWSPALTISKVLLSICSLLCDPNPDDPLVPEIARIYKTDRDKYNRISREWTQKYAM

Ubiquitin-conjugating enzyme E2 D3 (Homo sapiens), P61077 F62A
effect of a mutation on the interaction: disrupting interaction
